Data reported in article PMC4676722 (PLoS Genetics, 2015).
Where no end group is shown, it is not given here. [ ]: non-standard residue; d: D form. pY = N[C@@H](Cc1ccc(OP(=O)(O)O)cc1)C(=O)O

Target: T1, recombinant ovine wild type SOCS2 (Suppressor of Cytokine Signaling 2) (sheep (ovine), UniProt A0ACI6S499 1-198)
T1 construct: also called rOvSOCS2 WT; SOCS2-WT
T1 sequence (looked up): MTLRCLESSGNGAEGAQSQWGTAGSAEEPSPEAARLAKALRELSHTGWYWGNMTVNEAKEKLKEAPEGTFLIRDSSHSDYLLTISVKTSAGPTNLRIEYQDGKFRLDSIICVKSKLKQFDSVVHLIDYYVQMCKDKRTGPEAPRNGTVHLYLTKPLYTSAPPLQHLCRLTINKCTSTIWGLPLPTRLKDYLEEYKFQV
Experiment: SPR; BIAcore T200, single-cycle kinetics; biotinylated GHR pY-peptide immobilised on SA chip (75 RU), scramble peptide as reference; five injections of SOCS2 protein 100 nM-8.1 μM, 120 s each; 1:1 Langmuir fit; 25°C, HBS-EP buffer
Conditions: both partners purified

PVPD[pY]TSIHIV (also: biotinylated, site not given here) [phosphorylated peptide from the growth hormone receptor (pY595 GHR), biotinylated]
koff: 0.0016 s⁻¹
kon: 828 M⁻¹ s⁻¹
